Measured values taken from US20190330337A1, “Tunable Chimeric Antigen Receptors” (AUTOLUS LIMITED, priority 2016, published 2019).
Entries after “also recorded” stand apart in the source; their conditions may differ. Blank lines part the entries; values can stand above or below the molecule they belong to.

How the values were obtained:
[1] = system: SupT1 cells engineered to express CD33; test: Activation of TetCAR BW5 T-cells challenged with SupT1 cells expressing CD33; type: cell-based
Description: A bicistronic construct was expressed in BW5 T cells as a single transcript which self-cleaves at the 2A site to yield a signalling component which comprises TiP fused via a flexible linker to the endodomain of CD3-Zeta; and a receptor component which comprises a CD33 recognizing scFv, a spacer derived from the Fc domain of IgG1, a CD4 derived transmembrane and intracellular domain; and TetR (FIG. 19a). A control was also expressed which was identical except that TiP was absent from the signalling component (FIG. 19b).
The BW5 T-cells were challenged with wild-type SupT1 cells or SupT1 cells engineered to express CD33 in the absence of tetracycline or in the presence of increasing concentrations of tetracycline.
Control TetCAR which lacks the TiP domain was also transduced into BW5. Once again, these T-cells were challenged with wild-type SupT1 cells or SupT1 cells engineered to express CD33 in the absence or in the presence of increasing concentration of Tetracycline.

streptavidin = streptavidin (Streptomyces avidinii, UniProt P22629); details: biotin mimicking peptide binding streptavidin; read-out: affinity; cited from earlier work
CD22 [2] = target: T1, CD22 (Homo sapiens, UniProt P20273); test: Biacore affinity determination of CD22 binders; type: binding; details: scFv format, FIG. 6, result in words
Experimental: A CD19-binder (CD19ALAb) was identified, humanised and the binding affinities of both murine and humanised IgGs and scFvs were identified and compared with the “gold-standard” anti-CD19 binder, fmc63. In parallel, and a CD22-binder (CD22ALAb) was identified, humanised and the binding affinities of both murine and humanised IgGs and scFvs were identified and compared with the “gold-standard” anti-CD22 binder, M971.
Experiments were performed on a Biacore T200 instrument using HBS-P as running and dilution buffer. BIAevaluation software Version 2.0 was used for data processing. For binding kinetics, mouse anti-human IgG or goat anti-mouse IgG was covalently coupled to a CM5 Sensor Chip. IgG or scFv-Fc proteins were captured, and various concentrations of interaction partner protein injected over the flow cell at a flow rate of 30 μl/min. Kinetic rate constants were obtained by curve fitting according to a 1:1 Langmuir binding model. Bulk refractive index differences were subtracted using a blank control flow cell in which capture antibody had been immobilized to the same level as the active surface. A double reference subtraction was performed using buffer alone.

CD22 [3] = target: T1, CD22; test: SPR (Biacore T200), scFv-Fc captured on anti-IgG CM5 chip, interaction partner protein injected, 1:1 Langmuir fit
CD19 (human) = CD19 (human) (UniProt P15391); test: as above
CD19 (human), sequence (P15391 20-291 limits assumed): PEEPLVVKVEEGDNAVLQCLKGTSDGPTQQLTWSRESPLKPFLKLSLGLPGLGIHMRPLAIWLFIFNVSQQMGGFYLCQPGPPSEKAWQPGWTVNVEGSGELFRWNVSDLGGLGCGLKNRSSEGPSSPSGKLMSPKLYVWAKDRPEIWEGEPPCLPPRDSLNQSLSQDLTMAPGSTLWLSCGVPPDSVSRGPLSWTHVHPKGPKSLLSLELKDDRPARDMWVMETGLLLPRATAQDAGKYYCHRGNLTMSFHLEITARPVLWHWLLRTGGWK

streptavidin, sequence (P22629 37-163 limits assumed): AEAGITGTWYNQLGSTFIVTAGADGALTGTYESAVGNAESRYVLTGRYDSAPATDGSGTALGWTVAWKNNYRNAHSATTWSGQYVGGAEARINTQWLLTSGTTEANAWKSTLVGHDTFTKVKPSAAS

Molecule: CN(C)[C@@H]1C(O)=C(C(N)=O)C(=O)[C@@]2(O)C(O)=C3C(=O)c4c(O)cccc4[C@@](C)(O)[C@H]3C[C@@H]12 [tetracycline, reference compound]
concentration of tetracycline at which activation is fully inhibited [1]: 100 nM

Molecule: Biotin mimicking peptide DVEAWLGAR (SEQ ID NO: 31) (Biotin mimicking peptide, short nanotag)
Kd (streptavidin): 17 nM

Molecule: Biotin mimicking peptide DVEAWLDERVPLVET (SEQ ID NO: 30) (Biotin mimicking peptide, long nanotag)
Kd (streptavidin): 3.6 nM

Molecule: Biotin mimicking peptide CHPQGPPC (SEQ ID NO: 35) (Biotin mimicking peptide, ccstreptag)
Kd (streptavidin): 230 nM

Molecule: Biotin mimicking peptide WRHPQFGG (SEQ ID NO: 32) (Biotin mimicking peptide, streptag)
Kd (streptavidin): 72000 nM

B1: murine CD22ALAb: Murine CD22ALAb scFv, SEQ ID No. 25 (protein)
scFv: QVQLQQPGAELVRPGASVKLSCKASGYTFTNYWINWVKQRPGQGLEWIGNIYPSDSFTNYNQKFKDKATLTVDKSSSTAYMQLSSPTSEDSAVYYCTRDTQERSWYFDVWGAGTTVTVSSDVVMTQTPLSLPVSLGDQASISCRSSQSLVHSNGNTYLHWYLQKPGQSPKLLIYKVSNRFSGVPDRFSGSGSGTDFTLKISRVEAEDLGLYFCSQSTHVPWTFGGGTKLEIK
modifications: CAR, Murine CD22ALAb scFv sequence
binding affinity to CD22 (CD22 [2]): significantly higher binding affinity to CD22 than the gold-standard CD22-binding antibody, M971

Kd (CD22 [3]): 32 nM
koff (CD22 [3]): 0.00226 s⁻¹
kon (CD22 [3]): 68300 M⁻¹ s⁻¹
B2: Humanised CD22ALAb scFv (scFv, part only; not given: Fc part and VH-VL linker, not shown: another chain or arm of the molecule; a dimerising Fc or GST; small tags and cut ends)
scFv: EVQLVESGAEVKKPGSSVKVSCKASGYTFTNYWINWVRQAPGQGLEWIGNIYPSDSFTNYNQKFKDRATLTVDKSTSTAYLELRNLRSDDTAVYYCTRDTQERSWYFDVWGQGTLVTVSSDIVMTQSPATLSVSPGERATLSCRSSQSLVHSNGNTYLHWYQQKPGQAPRLLIYKVSNRFSGVPARFSGSGSGVEFTLTISSLQSEDFAVYYCSQSTHVPWTFGQGTRLEIK

B3: humanised CD22ALAb: Humanised CD22ALAb scFv, SEQ ID No. 26 (protein)
scFv: EVQLVESGAEVKKPGSSVKVSCKASGYTFTNYWINWVRQAPGQGLEWIGNIYPSDSFTNYNQKFKDRATLTVDKSTSTAYLELRNLRSDDTAVYYCTRDTQERSWYFDVWGQGTLVTVSSDIVMTQSPATLSVSPGERATLSCRSSQSLVHSNGNTYLHWYQQKPGQAPRLLIYKVSNRFSGVPARFSGSGSGVEFTLTISSLQSEDFAVYYCSQSTHVPWTFGQGTRLEIK
modifications: CAR, Humanised CD22ALAb scFv sequence
binding affinity to CD22 (CD22 [2]): comparable binding affinity to CD22 to murine CD22ALAb; also recorded: significantly higher binding affinity to CD22 than the gold-standard CD22-binding antibody, M971

Kd (CD19 (human)): 1.85 nM
koff (CD19 (human)): 0.000328 s⁻¹
kon (CD19 (human)): 178000 M⁻¹ s⁻¹
B4: Murine CD19ALAb scFv (scFv, part only; not given: Fc part and VH-VL linker, not shown: another chain or arm of the molecule; a dimerising Fc or GST; small tags and cut ends)
scFv: QVQLQQSGAELVRPGSSVKISCKASGYAFSSYWMNWVKQRPGQGLEWIGQIWPGDGDTNYNGKFKGKATLTADESSSTAYMQLSSLASEDSAVYFCARRETTTVGRYYYAMDYWGQGTTVTVSSDIQLTQSPASLAVSLGQRATISCKASQSVDYDGDSYLNWYQQIPGQPPKLLIYDASNLVSGIPPRFSGSGSGTDFTLNIHPVEKVDAATYHCQQSTEDPWTFGGGTKLEIK
